Source: IntAct's records for PubMed 26922829

The substances below were run against crp_human CRP (UniProt P02741).
Sequence of crp_human CRP (P02741 whole entry): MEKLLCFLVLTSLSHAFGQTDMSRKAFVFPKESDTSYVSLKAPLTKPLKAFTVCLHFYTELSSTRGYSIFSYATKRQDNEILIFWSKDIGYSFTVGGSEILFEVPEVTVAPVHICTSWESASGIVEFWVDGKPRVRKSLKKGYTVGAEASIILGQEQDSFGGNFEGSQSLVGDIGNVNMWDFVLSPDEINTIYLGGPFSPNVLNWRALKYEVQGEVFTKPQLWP
For “Collectin-12 (Homo sapiens), Q5KU26 R496A;K499A;K502A”, the “effect of a mutation on the interaction” value was “disrupting interaction strength”. With “Collectin-12 (Homo sapiens), Q5KU26 R448A;R451A;R454A” the “effect of a mutation on the interaction” value was “decreasing interaction strength”. “Collectin-12 (Homo sapiens), Q5KU26 R448A;R451A;R454A;K466A;K469A;K472A;R496A;K499A;K502A” was tested, and the “effect of a mutation on the interaction” value was “decreasing interaction strength”. “Collectin-12 (Homo sapiens), Q5KU26 K466A;K469A;K472A” was tested, and the “effect of a mutation on the interaction” value was “with no effect”.
